The target of the experiment is fibronectin (FN). The experiment can be described thus: solid phase ELISA, HEK293T/17 lysate on FN-coated wells, detected with Cub7402, normalised for expression.
fibronectin (FN), sequence (P02751 32-2477): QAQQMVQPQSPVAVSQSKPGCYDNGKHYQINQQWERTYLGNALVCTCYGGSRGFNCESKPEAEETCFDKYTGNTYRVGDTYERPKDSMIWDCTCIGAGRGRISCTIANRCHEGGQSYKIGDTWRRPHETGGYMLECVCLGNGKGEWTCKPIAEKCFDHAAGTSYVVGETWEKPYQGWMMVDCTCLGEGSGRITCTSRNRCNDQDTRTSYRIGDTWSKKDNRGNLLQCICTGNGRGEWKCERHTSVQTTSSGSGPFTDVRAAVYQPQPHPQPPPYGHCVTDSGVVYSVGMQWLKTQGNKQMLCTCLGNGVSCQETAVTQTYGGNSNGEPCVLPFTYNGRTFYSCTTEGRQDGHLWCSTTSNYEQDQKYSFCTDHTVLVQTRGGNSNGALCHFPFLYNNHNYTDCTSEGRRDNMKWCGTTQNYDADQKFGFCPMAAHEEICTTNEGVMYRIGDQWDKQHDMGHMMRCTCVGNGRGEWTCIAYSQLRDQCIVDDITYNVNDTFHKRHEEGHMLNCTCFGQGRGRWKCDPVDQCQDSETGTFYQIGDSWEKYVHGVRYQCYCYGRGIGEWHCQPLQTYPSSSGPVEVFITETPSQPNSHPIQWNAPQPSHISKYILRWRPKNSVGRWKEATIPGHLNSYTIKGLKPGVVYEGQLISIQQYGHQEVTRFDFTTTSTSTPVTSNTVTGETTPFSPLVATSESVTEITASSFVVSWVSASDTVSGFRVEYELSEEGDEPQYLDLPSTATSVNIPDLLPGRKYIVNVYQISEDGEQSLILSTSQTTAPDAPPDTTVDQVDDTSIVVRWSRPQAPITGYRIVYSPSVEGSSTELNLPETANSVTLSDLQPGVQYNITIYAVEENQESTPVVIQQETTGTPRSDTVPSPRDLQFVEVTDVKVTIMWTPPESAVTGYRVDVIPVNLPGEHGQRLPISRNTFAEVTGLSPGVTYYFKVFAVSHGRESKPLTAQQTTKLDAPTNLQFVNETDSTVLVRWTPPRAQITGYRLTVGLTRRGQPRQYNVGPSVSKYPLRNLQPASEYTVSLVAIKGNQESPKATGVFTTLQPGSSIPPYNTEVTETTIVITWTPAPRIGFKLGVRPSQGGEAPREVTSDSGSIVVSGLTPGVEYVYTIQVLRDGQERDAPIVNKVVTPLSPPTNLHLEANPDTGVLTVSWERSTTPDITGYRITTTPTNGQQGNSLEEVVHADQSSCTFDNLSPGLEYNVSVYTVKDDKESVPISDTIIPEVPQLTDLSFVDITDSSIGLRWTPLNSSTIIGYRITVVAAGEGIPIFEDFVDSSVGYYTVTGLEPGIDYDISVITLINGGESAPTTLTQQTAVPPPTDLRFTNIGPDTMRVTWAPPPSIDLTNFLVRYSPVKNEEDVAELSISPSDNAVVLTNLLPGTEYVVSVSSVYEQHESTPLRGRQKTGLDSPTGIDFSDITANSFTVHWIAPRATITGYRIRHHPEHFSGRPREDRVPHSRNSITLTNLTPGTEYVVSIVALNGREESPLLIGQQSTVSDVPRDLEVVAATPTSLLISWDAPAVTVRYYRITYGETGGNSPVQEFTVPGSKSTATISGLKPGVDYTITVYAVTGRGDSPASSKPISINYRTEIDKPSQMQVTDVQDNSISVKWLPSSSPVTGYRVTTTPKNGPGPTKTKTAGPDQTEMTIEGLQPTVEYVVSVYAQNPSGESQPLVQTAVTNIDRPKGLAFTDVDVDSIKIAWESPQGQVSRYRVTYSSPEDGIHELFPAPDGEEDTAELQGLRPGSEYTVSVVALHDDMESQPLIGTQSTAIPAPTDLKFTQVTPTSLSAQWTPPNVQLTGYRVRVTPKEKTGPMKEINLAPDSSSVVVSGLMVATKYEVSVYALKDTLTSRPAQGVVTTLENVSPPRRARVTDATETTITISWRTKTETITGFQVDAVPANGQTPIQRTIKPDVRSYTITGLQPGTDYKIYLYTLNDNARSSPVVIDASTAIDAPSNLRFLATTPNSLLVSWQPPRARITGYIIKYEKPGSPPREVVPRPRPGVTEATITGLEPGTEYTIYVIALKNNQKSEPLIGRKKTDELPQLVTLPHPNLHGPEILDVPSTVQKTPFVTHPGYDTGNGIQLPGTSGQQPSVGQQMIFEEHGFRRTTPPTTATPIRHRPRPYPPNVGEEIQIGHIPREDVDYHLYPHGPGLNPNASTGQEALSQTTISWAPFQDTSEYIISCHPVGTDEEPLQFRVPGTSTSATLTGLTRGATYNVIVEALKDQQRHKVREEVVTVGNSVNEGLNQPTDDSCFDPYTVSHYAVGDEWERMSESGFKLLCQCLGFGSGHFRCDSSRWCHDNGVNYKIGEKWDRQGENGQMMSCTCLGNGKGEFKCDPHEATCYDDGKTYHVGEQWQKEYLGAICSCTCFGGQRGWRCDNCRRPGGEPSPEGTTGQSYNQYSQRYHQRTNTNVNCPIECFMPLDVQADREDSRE

In the case of “N-terminal deletion product of TG2 (Δ1-15) (from UniProt P21980 16-687) (enzyme)”, the binding capacity of the wild type turned out to be 40%.

As to “TG2 FN binding site mutant (D94A, D97A) (from UniProt P21980 2-687) (enzyme)”, the binding compared to wild type TG2 turned out to be 50%.
